Data taken from publication PMC8916728.

Experiments:
[1] = molecular target: NRP2 a2b1b2 (human neuropilin 2 residues 145 to 595, monomeric IgG1 Fc tag) (human) (UniProt O60462); test: BLI
[2] = molecular target: monoFc-tagged NRP2 (human neuropilin 2 a1a2b1b2, residues 23 to 595) (human) (UniProt O60462); test: BLI
Sequence of monoFc-tagged NRP2 (human neuropilin 2 a1a2b1b2, residues 23 to 595) (human) (O60462 23-595): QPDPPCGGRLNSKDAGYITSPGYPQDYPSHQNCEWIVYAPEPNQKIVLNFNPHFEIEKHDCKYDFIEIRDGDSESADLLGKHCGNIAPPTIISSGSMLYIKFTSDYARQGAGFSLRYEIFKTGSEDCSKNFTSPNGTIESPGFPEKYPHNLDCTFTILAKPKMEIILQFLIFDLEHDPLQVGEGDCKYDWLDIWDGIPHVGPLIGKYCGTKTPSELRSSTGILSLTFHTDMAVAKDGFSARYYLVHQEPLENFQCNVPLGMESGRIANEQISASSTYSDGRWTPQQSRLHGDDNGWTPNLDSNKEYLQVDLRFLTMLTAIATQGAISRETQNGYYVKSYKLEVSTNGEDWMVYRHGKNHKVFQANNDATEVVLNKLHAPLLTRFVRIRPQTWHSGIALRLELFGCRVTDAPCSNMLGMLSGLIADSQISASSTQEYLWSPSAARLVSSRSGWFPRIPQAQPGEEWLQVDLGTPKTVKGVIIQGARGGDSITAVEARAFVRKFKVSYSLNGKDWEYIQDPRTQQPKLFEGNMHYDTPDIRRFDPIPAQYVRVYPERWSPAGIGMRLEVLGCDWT

Sequence of NRP2 a2b1b2 (human neuropilin 2 residues 145 to 595, monomeric IgG1 Fc tag) (human) (O60462 145-595): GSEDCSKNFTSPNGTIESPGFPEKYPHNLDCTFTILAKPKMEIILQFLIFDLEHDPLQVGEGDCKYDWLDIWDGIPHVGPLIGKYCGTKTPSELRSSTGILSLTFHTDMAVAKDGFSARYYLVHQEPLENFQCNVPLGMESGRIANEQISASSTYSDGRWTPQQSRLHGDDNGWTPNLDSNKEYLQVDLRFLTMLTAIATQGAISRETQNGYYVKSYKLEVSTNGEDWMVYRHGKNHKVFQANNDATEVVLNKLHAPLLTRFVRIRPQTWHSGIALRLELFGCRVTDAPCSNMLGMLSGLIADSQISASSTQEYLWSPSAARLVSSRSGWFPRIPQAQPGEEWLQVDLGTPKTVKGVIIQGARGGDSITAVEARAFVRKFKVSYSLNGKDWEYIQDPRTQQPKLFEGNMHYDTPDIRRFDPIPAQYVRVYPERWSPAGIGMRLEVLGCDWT

## soluble ectodomain of the HCMV Pentamer (strain Towne) (from UniProt P17176 24-718) (complex)
[1]
  Kd: 7.9 nM
[2]
  Kd: 2.2 nM
